# Assay results published in PMC3947485.
# Molecular target: TRAP1 from zebrafish (D. rerio), full-length mature protein (D. rerio)
# Experiment: crystal structure
substance,measurement,value
"TRAP1 from zebrafish (D. rerio), full-length mature protein (natural protein)",stoichiometry N,2
